{"source": "the supplement of paper PMC7877785", "assay": "self-splicing fitness, log relative to wild type (ln ratio); higher = more splicing; Tetrahymena group I intron in knt gene, E. coli kanamycin selection, DiMSum; sequences stand for … in CUCUCU…GGAGGGAAAAGUUAUCAGGCAUGCACCUGGUAGCUAGUCUUUAAACCAAUAGAUUGCAUCGGUUUAAAAGGCAAGACCGUCAAAUUGCGGGAAAGGGGUCAACAGCCGUUCAGUACCAAGUCUCAGGGGAAACUUUGAGAUGGCCUUGCAAAGGGUAUGGUAAUAAGCUGACGGACAUGGUCCUAACCACGCAGCCAAGUCCUAAGUCAACAGAUCUUCUGUUGAUAUGGAUGCAGUUCACAGACUAAAUGUCGGUCGGGGAAGAUGUAUUCUUCUCAUAAGAUAUAGUCGGACCUCUCCUUAAUGGGAGCUAGCGGAUGAAGUGAUGCAACACUGGAGCCGCUGGGAACUAAUUUGUAUGCGAAAGUAUAUUGAUUAGUUUUGGAGUACUCGUGGUCG", "procedure,_shortened": "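The eight P1ex-region nucleotides of an intron in the knt kanamycin-resistance gene on pET-22b(+) were all randomised and the library put into E. coli BL21(DE3). Six replicate transformations were grown overnight at 37°C or 30°C on LB agar with or without 25 μg/mL kanamycin, together with 100 μg/mL carbenicillin, 50 μM IPTG and 0.2% rhamnose. Colonies were pooled and amplicon-sequenced on an Illumina HiSeq 2500. Fitness from DiMSum is the error-weighted combination of wild-type-normalised replicate fold changes, kanamycin over none.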", "note": "± gives the uncertainty stated by the source."}
{"sequence": "AUGAAGCAAUAUUACGCAAA", "values": [{"measurement": "self-splicing fitness (ln)", "setting": "30 °C", "result": "-2.25 ± 0.17"}, {"measurement": "self-splicing fitness (ln)", "setting": "37 °C", "result": "-1.31 ± 0.17"}]}
{"sequence": "CUUUAGCAAUAUUACGUAGC", "values": [{"measurement": "self-splicing fitness (ln)", "setting": "37 °C", "result": "-1.6 ± 0.49"}]}
{"sequence": "GGUCAGCAAUAUUACGAGAC", "values": [{"measurement": "self-splicing fitness (ln)", "setting": "30 °C", "result": "-2.27 ± 0.23"}, {"measurement": "self-splicing fitness (ln)", "setting": "37 °C", "result": "-1.29 ± 0.31"}]}
{"sequence": "GAUUAGCAAUAUUACGAAAU", "values": [{"measurement": "self-splicing fitness (ln)", "setting": "30 °C", "result": "-2.4 ± 0.22"}, {"measurement": "self-splicing fitness (ln)", "setting": "37 °C", "result": "1.2 ± 0.2"}]}
{"sequence": "AUAAAGCAAUAUUACGAUGA", "values": [{"measurement": "self-splicing fitness (ln)", "setting": "30 °C", "result": "-0.326 ± 0.083"}, {"measurement": "self-splicing fitness (ln)", "setting": "37 °C", "result": "0.153 ± 0.12"}]}
{"sequence": "ACAGAGCAAUAUUACGAAUA", "values": [{"measurement": "self-splicing fitness (ln)", "setting": "30 °C", "result": "-3.45 ± 0.32"}, {"measurement": "self-splicing fitness (ln)", "setting": "37 °C", "result": "-2.2 ± 0.35"}]}
{"sequence": "AAGGAGCAAUAUUACGUCGA", "values": [{"measurement": "self-splicing fitness (ln)", "setting": "30 °C", "result": "-1.74 ± 0.2"}, {"measurement": "self-splicing fitness (ln)", "setting": "37 °C", "result": "-1.89 ± 0.2"}]}
{"sequence": "AAUAAGCAAUAUUACGUGCU", "values": [{"measurement": "self-splicing fitness (ln)", "setting": "30 °C", "result": "-1.8 ± 0.074"}, {"measurement": "self-splicing fitness (ln)", "setting": "37 °C", "result": "-1.29 ± 0.08"}]}
{"sequence": "AGUUAGCAAUAUUACGAAGU", "values": [{"measurement": "self-splicing fitness (ln)", "setting": "30 °C", "result": "-2.91 ± 0.17"}, {"measurement": "self-splicing fitness (ln)", "setting": "37 °C", "result": "-1.47 ± 0.15"}]}
{"sequence": "CUAAAGCAAUAUUACGUCUA", "values": [{"measurement": "self-splicing fitness (ln)", "setting": "30 °C", "result": "-4.21 ± 0.27"}, {"measurement": "self-splicing fitness (ln)", "setting": "37 °C", "result": "-2.2 ± 0.22"}]}
{"sequence": "UAUAAGCAAUAUUACGGUGG", "values": [{"measurement": "self-splicing fitness (ln)", "setting": "30 °C", "result": "-1.67 ± 0.13"}, {"measurement": "self-splicing fitness (ln)", "setting": "37 °C", "result": "-0.746 ± 0.13"}]}
{"sequence": "AGUGAGCAAUAUUACGAUGA", "values": [{"measurement": "self-splicing fitness (ln)", "setting": "30 °C", "result": "-4.11 ± 0.39"}, {"measurement": "self-splicing fitness (ln)", "setting": "37 °C", "result": "-2.24 ± 0.3"}]}
{"sequence": "GUGAAGCAAUAUUACGCUAC", "values": [{"measurement": "self-splicing fitness (ln)", "setting": "30 °C", "result": "-3.39 ± 0.27"}, {"measurement": "self-splicing fitness (ln)", "setting": "37 °C", "result": "-1.95 ± 0.31"}]}
{"sequence": "CUCCAGCAAUAUUACGCAAC", "values": [{"measurement": "self-splicing fitness (ln)", "setting": "30 °C", "result": "-3.98 ± 0.43"}, {"measurement": "self-splicing fitness (ln)", "setting": "37 °C", "result": "-3.13 ± 0.42"}]}
{"sequence": "UUGAAGCAAUAUUACGGAGC", "values": [{"measurement": "self-splicing fitness (ln)", "setting": "30 °C", "result": "-2.81 ± 0.21"}, {"measurement": "self-splicing fitness (ln)", "setting": "37 °C", "result": "-2.5 ± 0.41"}]}
{"sequence": "CAUUAGCAAUAUUACGUGGU", "values": [{"measurement": "self-splicing fitness (ln)", "setting": "30 °C", "result": "-4.46 ± 0.21"}, {"measurement": "self-splicing fitness (ln)", "setting": "37 °C", "result": "-2.6 ± 0.16"}]}
{"sequence": "CGGGAGCAAUAUUACGUGUG", "values": [{"measurement": "self-splicing fitness (ln)", "setting": "30 °C", "result": "-2.47 ± 0.16"}, {"measurement": "self-splicing fitness (ln)", "setting": "37 °C", "result": "-0.316 ± 0.11"}]}
{"sequence": "CGACAGCAAUAUUACGGCCG", "values": [{"measurement": "self-splicing fitness (ln)", "setting": "30 °C", "result": "-2.22 ± 0.12"}, {"measurement": "self-splicing fitness (ln)", "setting": "37 °C", "result": "-1.21 ± 0.12"}]}
{"sequence": "UCAUAGCAAUAUUACGGAGC", "values": [{"measurement": "self-splicing fitness (ln)", "setting": "30 °C", "result": "-2.3 ± 0.29"}, {"measurement": "self-splicing fitness (ln)", "setting": "37 °C", "result": "-3.14 ± 0.4"}]}
{"sequence": "CCUUAGCAAUAUUACGCUAU", "values": [{"measurement": "self-splicing fitness (ln)", "setting": "30 °C", "result": "-3.14 ± 0.14"}, {"measurement": "self-splicing fitness (ln)", "setting": "37 °C", "result": "-2.64 ± 0.18"}]}
{"sequence": "CCUAAGCAAUAUUACGACGC", "values": [{"measurement": "self-splicing fitness (ln)", "setting": "37 °C", "result": "-1.59 ± 0.42"}]}
{"sequence": "UAGAAGCAAUAUUACGAAUC", "values": [{"measurement": "self-splicing fitness (ln)", "setting": "30 °C", "result": "-3.48 ± 0.4"}, {"measurement": "self-splicing fitness (ln)", "setting": "37 °C", "result": "-2.65 ± 0.36"}]}
{"sequence": "CAGGAGCAAUAUUACGACCG", "values": [{"measurement": "self-splicing fitness (ln)", "setting": "30 °C", "result": "0.66 ± 0.2"}, {"measurement": "self-splicing fitness (ln)", "setting": "37 °C", "result": "0.00703 ± 0.17"}]}
{"sequence": "CAAAAGCAAUAUUACGCCAG", "values": [{"measurement": "self-splicing fitness (ln)", "setting": "30 °C", "result": "-0.849 ± 0.075"}, {"measurement": "self-splicing fitness (ln)", "setting": "37 °C", "result": "-1.32 ± 0.09"}]}
{"sequence": "UUGGAGCAAUAUUACGUCAG", "values": [{"measurement": "self-splicing fitness (ln)", "setting": "30 °C", "result": "-2.63 ± 0.26"}, {"measurement": "self-splicing fitness (ln)", "setting": "37 °C", "result": "-0.954 ± 0.2"}]}
{"sequence": "UGACAGCAAUAUUACGAACC", "values": [{"measurement": "self-splicing fitness (ln)", "setting": "30 °C", "result": "-2.97 ± 0.25"}, {"measurement": "self-splicing fitness (ln)", "setting": "37 °C", "result": "-1.37 ± 0.22"}]}
{"sequence": "GAAUAGCAAUAUUACGGUUU", "values": [{"measurement": "self-splicing fitness (ln)", "setting": "30 °C", "result": "-1.03 ± 0.078"}, {"measurement": "self-splicing fitness (ln)", "setting": "37 °C", "result": "-1.11 ± 0.1"}]}
{"sequence": "GAAAAGCAAUAUUACGCCCA", "values": [{"measurement": "self-splicing fitness (ln)", "setting": "30 °C", "result": "-0.288 ± 0.11"}, {"measurement": "self-splicing fitness (ln)", "setting": "37 °C", "result": "-0.385 ± 0.19"}]}
{"sequence": "ACGGAGCAAUAUUACGGUAA", "values": [{"measurement": "self-splicing fitness (ln)", "setting": "30 °C", "result": "-2.95 ± 0.49"}, {"measurement": "self-splicing fitness (ln)", "setting": "37 °C", "result": "-3.1 ± 0.28"}]}
{"sequence": "UGCCAGCAAUAUUACGUACC", "values": [{"measurement": "self-splicing fitness (ln)", "setting": "30 °C", "result": "-3.09 ± 0.22"}, {"measurement": "self-splicing fitness (ln)", "setting": "37 °C", "result": "-1.98 ± 0.21"}]}
{"sequence": "AGAUAGCAAUAUUACGUUAU", "values": [{"measurement": "self-splicing fitness (ln)", "setting": "30 °C", "result": "-3.23 ± 0.17"}, {"measurement": "self-splicing fitness (ln)", "setting": "37 °C", "result": "-3.55 ± 0.25"}]}
{"sequence": "GACUAGCAAUAUUACGUCCG", "values": [{"measurement": "self-splicing fitness (ln)", "setting": "37 °C", "result": "-1.5 ± 0.31"}]}
{"sequence": "CUAAAGCAAUAUUACGCCGA", "values": [{"measurement": "self-splicing fitness (ln)", "setting": "30 °C", "result": "-3.46 ± 0.24"}, {"measurement": "self-splicing fitness (ln)", "setting": "37 °C", "result": "-2.42 ± 0.25"}]}
{"sequence": "ACUCAGCAAUAUUACGUGGC", "values": [{"measurement": "self-splicing fitness (ln)", "setting": "30 °C", "result": "-3.04 ± 0.14"}, {"measurement": "self-splicing fitness (ln)", "setting": "37 °C", "result": "-2.9 ± 0.17"}]}
{"sequence": "AAAAAGCAAUAUUACGUUCA", "values": [{"measurement": "self-splicing fitness (ln)", "setting": "30 °C", "result": "-0.237 ± 0.075"}, {"measurement": "self-splicing fitness (ln)", "setting": "37 °C", "result": "0.0228 ± 0.089"}]}
{"sequence": "UGCUAGCAAUAUUACGGACC", "values": [{"measurement": "self-splicing fitness (ln)", "setting": "30 °C", "result": "0.158 ± 0.22"}, {"measurement": "self-splicing fitness (ln)", "setting": "37 °C", "result": "-1.06 ± 0.22"}]}
{"sequence": "CUGAAGCAAUAUUACGUUCC", "values": [{"measurement": "self-splicing fitness (ln)", "setting": "37 °C", "result": "-2.57 ± 0.3"}]}
{"sequence": "GAACAGCAAUAUUACGGACU", "values": [{"measurement": "self-splicing fitness (ln)", "setting": "30 °C", "result": "-1.28 ± 0.085"}, {"measurement": "self-splicing fitness (ln)", "setting": "37 °C", "result": "-0.212 ± 0.097"}]}
{"sequence": "GUAAAGCAAUAUUACGUCGG", "values": [{"measurement": "self-splicing fitness (ln)", "setting": "30 °C", "result": "-2.85 ± 0.12"}, {"measurement": "self-splicing fitness (ln)", "setting": "37 °C", "result": "-1.05 ± 0.13"}]}
